FireProtDB (doi:10.1002/pro.5560040510)

Conditions: Bos taurus, glycine 40 mM, reversible: no, whole UniProt chain shown; for Tm / unfolding enthalpy (van 't Hoff): Thermal, Absorbance

B1: Adrenodoxin, mitochondrial wild type, P00257 (protein)
chain: MAARLLRVASAALGDTAGRWRLLARPRAGAGGLRGSRGPGLGGGAVATRTLSVSGRAQSSSEDKITVHFINRDGETLTTKGKIGDSLLDVVVQNNLDIDGFGACEGTLACSTCHLIFEQHIFEKLEAITDEENDMLDLAYGLTDRSRLGCQICLTKAMDNMTVRVPDAVSDARESIDMGMNSSKIE
For B1, the Tm (pH 6.5) was 47.5 °C, the “unfolding enthalpy (van 't Hoff)” value (pH 6.5) was 90 kcal/mol and the Tm (pH 7.4) was 53.7 °C. For the same protein, the “unfolding enthalpy (van 't Hoff)” value (pH 7.4) was 91.6 kcal/mol, the unfolding free energy (pH 8.5, 25 °C, Urea, DSC) was 5.02 kcal/mol and the Tm (pH 8.5) was 53.5 °C. The “unfolding enthalpy (van 't Hoff)” value (pH 8.5) was 82 kcal/mol, the Tm (pH 9.5) was 54 °C and the “unfolding enthalpy (van 't Hoff)” value (pH 9.5) was 79.2 kcal/mol. For the same protein, the Tm (pH 10.5) was 53.2 °C and the “unfolding enthalpy (van 't Hoff)” value (pH 10.5) was 64.6 kcal/mol.
